Results on one molecule are retold here after article PMC7902612 (2021).

The target in the test is GST-BRCA1-N (N-terminal of BRCA1, 1-147 aa) (human, UniProt P38398 1-147). Description: MST.
Sequence of GST-BRCA1-N (N-terminal of BRCA1, 1-147 aa) (P38398 1-147): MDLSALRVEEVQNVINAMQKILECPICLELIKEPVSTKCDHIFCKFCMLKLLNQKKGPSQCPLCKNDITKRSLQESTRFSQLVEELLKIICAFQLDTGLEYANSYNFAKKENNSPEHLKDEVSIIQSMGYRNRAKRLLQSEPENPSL

B1: GFP-BARD1^WT (natural protein)
chain: MPDNRQPRNRQPRIRSGNEPRSAPAMEPDGRGAWAHSRAALDRLEKLLRCSRCTNILREPVCLGGCEHIFCSNCVSDCIGTGCPVCYTPAWIQDLKINRQLDSMIQLCSKLRNLLHDNELSDLKEDKPRKSLFNDAGNKKNSIKMWFSPRSKKVRYVVSKASVQTQPAIKKDASAQQDSYEFVSPSPPADVSERAKKASARSGKKQKKKTLAEINQKWNLEAEKEDGEFDSKEESKQKLVSFCSQPSVISSPQINGEIDLLASGSLTESECFGSLTEVSLPLAEQIESPDTKSRNEVVTPEKVCKNYLTSKKSLPLENNGKRGHHNRLSSPISKRCRTSILSTSGDFVKQTVPSENIPLPECSSPPSCKRKVGGTSGRKNSNMSDEFISLSPGTPPSTLSSSSYRRVMSSPSAMKLLPNMAVKRNHRGETLLHIASIKGDIPSVEYLLQNGSDPNVKDHAGWTPLHEACNHGHLKVVELLLQHKALVNTTGYQNDSPLHDAAKNGHVDIVKLLLSYGASRNAVNIFGLRPVDYTDDESMKSLLLLPEKNESSSASHCSVMNTGQRRDGPLVLIGSGLSSEQQKMLSELAVILKAKKYTEFDSTVTHVVVPGDAVQSTLKCMLGILNGCWILKFEWVKACLRRKVCEQEEKYEIPEGPRRSRLNREQLLPKLFDGCYFYLWGTFKHHPKDNLIKLVTAGGGQILSRKPKPDSDVTQTINTVAYHARPDSDQRFCTQYIIYEDLCNYHPERVRQGKVWKAPSSWFIDCVMSFELLPLDS
The Kd is the free concentration of one partner at which half of the binding sites on the other are occupied at equilibrium, for simple one-to-one binding. High values mean lower affinity, low ones higher affinity. As for B1, the Kd amounted to 1.34 µM.
